We go through 3 variants from IntAct's records for PubMed 36931259.

The chains are these.
B1: 14-3-3 protein sigma (Homo sapiens), P31947 (parent)
chain: MERASLIQKAKLAEQAERYEDMAAFMKGAVEKGEELSCEERNLLSVAYKNVVGGQRAAWRVLSSIEQKSNEEGSEEKGPEVREYREKVETELQGVCDTVLGLLDSHLIKEAGDAESRVFYLKMKGDYYRYLAEVATGDDKKRIIDSARSAYQEAMDISKKEMPPTNPIRLGLALNFSVFHYEIANSPEEAISLAKTTFDEAMADLHTLSEDSYKDSTLIMQLLRDNLTLWTADNAGEEGGEAPQEPQS
partner: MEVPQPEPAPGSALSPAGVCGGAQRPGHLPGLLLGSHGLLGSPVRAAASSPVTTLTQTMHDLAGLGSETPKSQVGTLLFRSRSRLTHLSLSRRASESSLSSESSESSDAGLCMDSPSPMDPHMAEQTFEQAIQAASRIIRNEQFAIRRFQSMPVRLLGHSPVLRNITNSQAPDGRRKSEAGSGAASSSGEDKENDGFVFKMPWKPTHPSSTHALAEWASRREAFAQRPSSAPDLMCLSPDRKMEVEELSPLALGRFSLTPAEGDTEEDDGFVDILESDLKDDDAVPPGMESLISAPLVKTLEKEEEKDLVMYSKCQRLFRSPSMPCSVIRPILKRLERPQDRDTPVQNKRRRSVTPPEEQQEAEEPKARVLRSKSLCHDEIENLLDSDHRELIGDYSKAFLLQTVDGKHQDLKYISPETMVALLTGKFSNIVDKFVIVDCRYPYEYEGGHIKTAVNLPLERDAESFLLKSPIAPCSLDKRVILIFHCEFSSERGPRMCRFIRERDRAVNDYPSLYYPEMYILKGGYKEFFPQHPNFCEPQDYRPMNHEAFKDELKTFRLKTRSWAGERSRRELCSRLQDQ
B2: 14-3-3 protein sigma (Homo sapiens), P31947 (parent)
chain: B1 chain
partner: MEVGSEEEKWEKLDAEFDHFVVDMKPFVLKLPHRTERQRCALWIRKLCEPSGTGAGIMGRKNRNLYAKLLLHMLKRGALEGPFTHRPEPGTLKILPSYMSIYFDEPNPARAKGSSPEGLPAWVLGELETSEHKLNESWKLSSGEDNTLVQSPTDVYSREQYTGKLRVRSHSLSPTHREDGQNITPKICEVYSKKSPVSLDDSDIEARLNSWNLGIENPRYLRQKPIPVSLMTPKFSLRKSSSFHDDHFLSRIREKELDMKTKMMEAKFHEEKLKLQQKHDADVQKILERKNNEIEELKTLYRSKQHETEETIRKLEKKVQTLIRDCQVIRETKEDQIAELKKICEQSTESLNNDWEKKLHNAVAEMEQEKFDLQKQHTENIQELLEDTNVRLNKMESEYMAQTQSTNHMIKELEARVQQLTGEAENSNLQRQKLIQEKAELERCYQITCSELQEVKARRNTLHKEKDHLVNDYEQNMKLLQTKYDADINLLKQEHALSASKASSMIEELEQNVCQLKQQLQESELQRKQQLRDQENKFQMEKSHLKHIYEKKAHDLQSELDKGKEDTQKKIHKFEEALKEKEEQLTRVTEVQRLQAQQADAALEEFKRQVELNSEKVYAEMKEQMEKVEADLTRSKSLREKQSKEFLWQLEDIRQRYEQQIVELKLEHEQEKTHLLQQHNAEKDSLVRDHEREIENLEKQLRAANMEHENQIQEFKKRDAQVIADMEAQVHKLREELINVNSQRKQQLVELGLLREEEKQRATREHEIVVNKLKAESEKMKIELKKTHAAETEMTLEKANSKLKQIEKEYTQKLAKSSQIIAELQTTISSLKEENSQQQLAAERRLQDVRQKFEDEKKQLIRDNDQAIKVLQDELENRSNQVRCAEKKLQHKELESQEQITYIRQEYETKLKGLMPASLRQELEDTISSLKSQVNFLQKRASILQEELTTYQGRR
B3: 14-3-3 protein sigma (Homo sapiens), P31947 (parent)
chain: B1 chain
partner: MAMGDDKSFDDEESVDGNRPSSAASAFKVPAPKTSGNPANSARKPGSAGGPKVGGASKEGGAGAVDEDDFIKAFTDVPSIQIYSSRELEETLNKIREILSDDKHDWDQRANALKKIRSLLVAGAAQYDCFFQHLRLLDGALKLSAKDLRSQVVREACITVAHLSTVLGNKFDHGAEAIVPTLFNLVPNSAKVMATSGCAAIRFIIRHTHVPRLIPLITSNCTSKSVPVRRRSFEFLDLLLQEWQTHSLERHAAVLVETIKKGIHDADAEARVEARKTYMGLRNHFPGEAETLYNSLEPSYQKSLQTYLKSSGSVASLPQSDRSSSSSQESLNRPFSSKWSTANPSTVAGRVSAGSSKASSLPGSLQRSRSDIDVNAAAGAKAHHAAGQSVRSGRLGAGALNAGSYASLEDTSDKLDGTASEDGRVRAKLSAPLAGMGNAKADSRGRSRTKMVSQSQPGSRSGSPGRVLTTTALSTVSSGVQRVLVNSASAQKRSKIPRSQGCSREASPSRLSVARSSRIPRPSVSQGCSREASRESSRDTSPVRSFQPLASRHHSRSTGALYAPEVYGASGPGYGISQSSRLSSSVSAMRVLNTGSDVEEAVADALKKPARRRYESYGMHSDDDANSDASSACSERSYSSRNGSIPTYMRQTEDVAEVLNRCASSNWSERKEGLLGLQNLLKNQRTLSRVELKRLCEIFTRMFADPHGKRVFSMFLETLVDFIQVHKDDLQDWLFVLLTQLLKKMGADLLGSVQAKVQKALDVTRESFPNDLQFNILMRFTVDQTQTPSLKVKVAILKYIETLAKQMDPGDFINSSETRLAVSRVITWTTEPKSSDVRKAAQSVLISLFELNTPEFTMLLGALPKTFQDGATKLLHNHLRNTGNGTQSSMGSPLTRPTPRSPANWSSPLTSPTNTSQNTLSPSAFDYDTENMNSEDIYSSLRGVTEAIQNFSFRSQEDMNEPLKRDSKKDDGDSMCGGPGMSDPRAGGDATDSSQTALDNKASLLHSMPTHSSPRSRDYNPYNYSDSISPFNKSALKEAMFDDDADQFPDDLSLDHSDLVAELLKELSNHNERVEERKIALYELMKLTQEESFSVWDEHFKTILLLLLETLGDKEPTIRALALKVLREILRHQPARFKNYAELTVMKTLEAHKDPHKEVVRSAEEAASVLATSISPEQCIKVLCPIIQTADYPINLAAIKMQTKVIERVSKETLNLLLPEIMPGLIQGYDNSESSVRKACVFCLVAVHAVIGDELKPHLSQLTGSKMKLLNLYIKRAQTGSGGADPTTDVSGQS

In the first assay the parent is B1. Particulars: with mpip2_human CDC25B.
Regarding MERASLIQKAKLAEQAERYEDMAAFMKGAVEKGEELSCEERNLLSVAYENVVGGQEAAWRVLSSIEQKSNEEGSEEKGPEVREYREKVETELQGVCDTVLGLLDSHLIKEAGDAESRVFYLKMKGDYYRYLAEVATGDDKKRIIDSARSAYQEAMDISKKEMPPTNPIRLGLALNFSDFHYEIANSPEEAISLAKTTFDEAMADLHTLSEDSYKDSTLIMQLLRDNLTLWTADNAGEEGGEAPQEPQS [K49E;R56E;V178D], the “effect of a mutation on the interaction” value was “decreasing interaction strength”.

The variants in the next assay derive from B2. The conditions noted are these: with ce112_human CEP112, Q8N8E3.
Take MERASLIQKAKLAEQAERYEDMAAFMKGAVEKGEELSCEERNLLSVAYENVVGGQEAAWRVLSSIEQKSNEEGSEEKGPEVREYREKVETELQGVCDTVLGLLDSHLIKEAGDAESRVFYLKMKGDYYRYLAEVATGDDKKRIIDSARSAYQEAMDISKKEMPPTNPIRLGLALNFSDFHYEIANSPEEAISLAKTTFDEAMADLHTLSEDSYKDSTLIMQLLRDNLTLWTADNAGEEGGEAPQEPQS [K49E;R56E;V178D]: the “effect of a mutation on the interaction” value is “decreasing interaction strength”.

In the next assay the parent is B3. The conditions noted are these: with clap2_human CLASP2, O75122.
Take MERASLIQKAKLAEQAERYEDMAAFMKGAVEKGEELSCEERNLLSVAYENVVGGQEAAWRVLSSIEQKSNEEGSEEKGPEVREYREKVETELQGVCDTVLGLLDSHLIKEAGDAESRVFYLKMKGDYYRYLAEVATGDDKKRIIDSARSAYQEAMDISKKEMPPTNPIRLGLALNFSDFHYEIANSPEEAISLAKTTFDEAMADLHTLSEDSYKDSTLIMQLLRDNLTLWTADNAGEEGGEAPQEPQS [K49E;R56E;V178D]: the “effect of a mutation on the interaction” value was “decreasing interaction strength”.
